# Measurements as given in patent US20200062844A1 (Regeneron, published 2020).
# T1: human FcεR1α expressed on cells (human, UniProt P12319 26-257)
# T1 sequence (looked up): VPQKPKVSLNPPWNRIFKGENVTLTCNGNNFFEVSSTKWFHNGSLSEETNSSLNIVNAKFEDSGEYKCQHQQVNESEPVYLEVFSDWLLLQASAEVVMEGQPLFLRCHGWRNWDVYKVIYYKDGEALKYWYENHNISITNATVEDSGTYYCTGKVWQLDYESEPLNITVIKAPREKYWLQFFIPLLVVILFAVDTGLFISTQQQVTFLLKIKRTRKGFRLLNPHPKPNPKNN
# T2: hFcεR1α.MMH (human)
# T2 construct: also called ectodomain of human FcεR1α with C-term myc-myc-6×His tag
# T2 chain: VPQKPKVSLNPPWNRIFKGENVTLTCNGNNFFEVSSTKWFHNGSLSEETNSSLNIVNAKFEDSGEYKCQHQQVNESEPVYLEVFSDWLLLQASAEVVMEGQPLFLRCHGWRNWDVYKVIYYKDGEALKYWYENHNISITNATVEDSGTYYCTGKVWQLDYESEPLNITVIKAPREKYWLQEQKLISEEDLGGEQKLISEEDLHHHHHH
# T3: mfFcεR1α.MMH (cynomolgus (Macaca fascicularis))
# T3 construct: also called mfFceR1a.MMH; ectodomain of cynomolgus FcεR1α with C-term myc-myc-6×His tag
# T3 chain: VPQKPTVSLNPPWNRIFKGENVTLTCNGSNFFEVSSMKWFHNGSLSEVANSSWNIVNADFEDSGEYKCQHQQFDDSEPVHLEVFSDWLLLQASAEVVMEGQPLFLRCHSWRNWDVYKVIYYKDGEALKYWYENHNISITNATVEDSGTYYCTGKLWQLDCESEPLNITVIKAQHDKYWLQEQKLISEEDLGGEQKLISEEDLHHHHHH
# Experiments:
# [1] = target: T4, human CD3 expressed in Jurkat cells (human, UniProt P07766 23-207; P04234 22-171; P20963 22-164; P09693 23-182); test: cell-based or functional assay
# T4 sequence (P07766 23-207 limits assumed, chain 1 of 4): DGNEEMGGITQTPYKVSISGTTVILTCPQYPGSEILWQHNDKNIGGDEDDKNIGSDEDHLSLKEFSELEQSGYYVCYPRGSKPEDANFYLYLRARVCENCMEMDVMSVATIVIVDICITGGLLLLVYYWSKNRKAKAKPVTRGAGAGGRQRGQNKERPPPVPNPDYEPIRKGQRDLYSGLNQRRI
# T4 sequence (P04234 22-171 limits assumed, chain 2 of 4): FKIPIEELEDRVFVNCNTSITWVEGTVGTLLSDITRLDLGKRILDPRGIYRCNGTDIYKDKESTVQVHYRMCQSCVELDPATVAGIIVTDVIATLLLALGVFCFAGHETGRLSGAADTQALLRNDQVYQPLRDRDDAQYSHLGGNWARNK
# T4 sequence (P20963 22-164 limits assumed, chain 3 of 4): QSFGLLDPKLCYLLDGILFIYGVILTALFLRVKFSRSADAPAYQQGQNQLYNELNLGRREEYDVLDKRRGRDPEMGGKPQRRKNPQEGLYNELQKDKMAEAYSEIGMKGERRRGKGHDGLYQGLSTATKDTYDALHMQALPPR
# T4 sequence (P09693 23-182 limits assumed, chain 4 of 4): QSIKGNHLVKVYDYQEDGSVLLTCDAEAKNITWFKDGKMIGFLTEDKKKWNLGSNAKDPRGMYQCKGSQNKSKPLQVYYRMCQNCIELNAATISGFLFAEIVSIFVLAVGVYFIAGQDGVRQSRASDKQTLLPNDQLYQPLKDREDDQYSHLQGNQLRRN
# [2] = target: T1, human FcεR1α expressed on cells; test: cell-based or functional assay
# [3] = target: T1, human FcεR1α expressed on cells; test: cell-based or functional assay; remark: listed apart in the source
# [4] = target: T4, human CD3 expressed in Jurkat cells; test: flow cytometry, 70 nM antibody on Jurkat/NFAT-luc cells, No IgE
# Description: (§1) For flow cytometry analysis, HEK293, HEK293/hFcεR1α/hFcεR1β/hFcεR1γ and HEK293/mf FcεR1α/hFcεR1β/hFcεR1γ cells were collected after dissociation using Enzyme Free Dissociation Buffer (Millipore Cat# S-004), and the cells were pre-incubated with or without 70 nM human IgE, for 30 minutes on ice in FACS buffer (PBS, without Ca⁺⁺ and Mg⁺⁺, (Irvine Scientific, Cat#9240) containing 2% FBS). Jurkat/NFAT-luc cells were also collected. The antibodies at the concentration of 70 nM were then added to 1×10⁶ cells/well of each cell type at 4° C. for 30 minutes. […] Cells were fixed using BD CytoFix™ (Becton Dickinson, Cat. #554655) and analyzed on Accuri™ C6 (BD) or CytoFLEX Flow cytometer (Beckman Coulter). Unstained and secondary antibody alone controls were also tested for all cell lines and a sample was evaluated for viability using the Far Red Fluo viability dye (Thermo Fisher, Cat#L10120) according to the manufacturer's protocol. The results were analyzed using FlowJo software (version 10.0.8, FlowJo) to determine the geometric means of fluorescence for viable cells and the binding ratio was calculated with the mean fluorescence intensity (MFI) of the experimental condition normalized by the MFI of the unstained respective cells.
# [5] = target: T1, human FcεR1α expressed on cells; test: flow cytometry, 70 nM antibody on HEK293/hFcεR1α/hFcεR1β/hFcεR1γ cells, No IgE
# Description: as §1
# [6] = target: T5, monkey (cynomolgus) FcεR1α expressed on cells (cynomolgus); test: flow cytometry, 70 nM antibody on HEK293/mfFcεR1α/hFcεR1β/hFcεR1γ cells, No IgE
# T5 construct: range 4-260; On HEK293 cells, co-expressed with human FcεR1β and FcεR1γ; also called mfFcεR1α; HEK293/mfFcεR1α/hFcεR1β/hFcεR1γ cells
# Description: as §1
# hFcεR1α.MMH [7] = target: T2, hFcεR1α.MMH; test: SPR (Biacore 8k), antibody captured on anti-human Fc, hFcεR1α.MMH injected, 25°C
# Description: (§2) Equilibrium dissociation constants (KD) for human or cynomolgus FcεR1α ectodomain binding to purified anti-FcεR1α monoclonal antibodies (mAbs) and CD3×FcεR1α bispecific antibodies (bsAbs) were determined using a real-time surface plasmon resonance biosensor (SPR-Biacore), Biacore 8k. All binding studies were performed in 10 mM HEPES, 150 mM NaCl, 3 mM EDTA, and 0.05% v/v surfactant Tween-20, pH 7.4 (HBS-ET) running buffer at 25° C. and 37° C.
# (§3) The Biacore CM4 sensor surface was first derivatized by amine coupling with a monoclonal mouse anti-human Fc antibody to capture approximately 500-900 RUs anti-FcεR1α monoclonal antibodies or anti-CD3×FcεR1α bispecific monoclonal antibodies. 1 RU (response unit) represents 1 pg of protein per mm², as defined by the manufacturer. The ectodomain of human and cynomolgus FcεR1α reagents were expressed with a C-term myc-myc-6×His tag-hFcεR1α.MMH (SEQ ID NO: 57) and mfFcεR1α.MMH (SEQ ID NO: 58). Different concentrations of FcεR1α reagents were prepared in HBS-ET running buffer (600 nM-7.4 nM; serially diluted by 3-fold) and injected over anti-human Fc captured anti-FcεR1α monoclonal antibodies or anti-CD3×FcεR1α bispecific monoclonal antibodies surfaces for 1 minute at a flow rate of 30 μL/minute. The dissociation of bound FcεR1α reagents was monitored for 4 minutes in HBS-ET running buffer. Association (kₐ) and dissociation (kd) rate constants were determined by fitting the real-time binding sensorgrams to a 1:1 binding model with mass transport limitation using Biacore 8k evaluation software. Binding dissociation equilibrium constants (KD) and dissociative half-lives (t½) were calculated from the kinetic rate constants as: […]
# hFcεR1α.MMH [8] = target: T2, hFcεR1α.MMH; test: SPR (Biacore 8k), antibody captured on anti-human Fc, hFcεR1α.MMH injected, 37°C
# Description: as §2, §3
# mfFcεR1α.MMH [9] = target: T3, mfFcεR1α.MMH; test: SPR (Biacore 8k), antibody captured on anti-human Fc, mfFcεR1α.MMH injected, 25°C
# Description: as §2, §3
# mfFcεR1α.MMH [10] = target: T3, mfFcεR1α.MMH; test: SPR (Biacore 8k), antibody captured on anti-human Fc, mfFcεR1α.MMH injected, 37°C
# Description: as §2, §3
# [11] = target: T1, human FcεR1α expressed on cells; test: flow cytometry, 70 nM antibody on HEK293/hFcεR1α/hFcεR1β/hFcεR1γ cells pre-incubated with 70 nM human IgE
# Description: as §1
# [12] = target: T5, monkey (cynomolgus) FcεR1α expressed on …; test: flow cytometry, 70 nM antibody on HEK293/mfFcεR1α/hFcεR1β/hFcεR1γ cells pre-incubated with 70 nM human IgE
# Description: as §1
binder,measurement,setting,value
"bsAb24921D (bispecific antibody, human IgG4 S228P, kappa, IgG4 Fc domain; two distinct heavy chains with a common light chain; also called anti-FcεR1α×CD3 bispecific antibody; FcεR1α × hCD3) heavy 1: QVQVQESGPRLVKPSETLSLTCTVSGGSMSSYYWIWIRQPPGKELEWIGYIYYSGSTNYNPSLKSRATISVDTSKNQFSLNLNSVTAADTAVYYCARRNNWNYVRAFDIWGQGTMVTVSSASTKGPSVFPLAPCSRSTSESTAALGCLVKDYFPEPVTVSWNSGALTSGVHTFPAVLQSSGLYSLSSVVTVPSSSLGTKTYTCNVDHKPSNTKVDKRVESKYGPPCPPCPAPPVAGPSVFLFPPKPKDTLMISRTPEVTCVVVDVSQEDPEVQFNWYVDGVEVHNAKTKPREEQFNSTYRVVSVLTVLHQDWLNGKEYKCKVSNKGLPSSIEKTISKAKGQPREPQVYTLPPSQEEMTKNQVSLTCLVKGFYPSDIAVEWESNGQPENNYKTTPPVLDSDGSFFLYSRLTVDKSRWQEGNVFSCSVMHEALHNHYTQKSLSLSLGK heavy 2: EVQLVESGGGLVQPGRSLRLSCAASGFTFDDYSMHWVRQAPGKGLEWVSGISWNSGSIGYADSVKGRFTISRDNAKNSLYLQMNSLRAEDTALYYCAKYGSGYGKFYYYGMDVWGQGTTVTVSSASTKGPSVFPLAPCSRSTSESTAALGCLVKDYFPEPVTVSWNSGALTSGVHTFPAVLQSSGLYSLSSVVTVPSSSLGTKTYTCNVDHKPSNTKVDKRVESKYGPPCPPCPAPPVAGPSVFLFPPKPKDTLMISRTPEVTCVVVDVSQEDPEVQFNWYVDGVEVHNAKTKPREEQFNSTYRVVSVLTVLHQDWLNGKEYKCKVSNKGLPSSIEKTISKAKGQPREPQVYTLPPSQEEMTKNQVSLTCLVKGFYPSDIAVEWESNGQPENNYKTTPPVLDSDGSFFLYSRLTVDKSRWQEGNVFSCSVMHEALHNRFTQKSLSLSPGK light: not shown","EC50 [M], NFAT-luciferase in Jurkat/NFAT-luc with HEK293/hFcεR1α/hFcεR1β/hFcεR1γ cells, 10 nM IgE",[1],1.1e-09 M
same,"EC50 [M], NFAT-luciferase in Jurkat/NFAT-luc with HEK293/hFcεR1α/hFcεR1β/hFcεR1γ cells, No IgE",[1],2.3e-10 M
same,"Fold Activation, Jurkat/NFAT-luc with HEK293/hFcεR1α/hFcεR1β/hFcεR1γ cells, 10 nM IgE",[1],27 fold
same,"Fold Activation, Jurkat/NFAT-luc with HEK293/hFcεR1α/hFcεR1β/hFcεR1γ cells, No IgE",[1],24 fold
same,"EC80, cleaved caspase 3+ cleaved PARP+ HEK293/hFcεR1α/hFcεR1β/hFcεR1γ target cells with activated CD8+ T cells",[2],0.0613 nM
same,"Maximum percent apoptotic cells, HEK293/hFcεR1α/hFcεR1β/hFcεR1γ target cells with activated CD8+ T cells",[2],55.8%
same,"EC50, decrease of primary human basophils within PBMC with activated CD8+ T cells",[3],4 nM
same,"Maximum percent basophil decrease, PBMC with activated CD8+ T cells",[3],90.9%
same,Binding Ratio (MFI of Treated/MFI of Unstained),[4],94
same,Binding Ratio (MFI of Treated/MFI of Unstained),[5],253
same,Binding Ratio (MFI of Treated/MFI of Unstained),[6],169
same,600 nM hFcεR1α.MMH Bound (RU),hFcεR1α.MMH [7],69 RU
same,Kd,hFcεR1α.MMH [7],274 nM
same,koff,hFcεR1α.MMH [7],0.0212 s⁻¹
same,kon,hFcεR1α.MMH [7],77400 M⁻¹ s⁻¹
same,t½,hFcεR1α.MMH [7],32.4 s
same,600 nM hFcεR1α.MMH Bound (RU),hFcεR1α.MMH [8],40 RU
same,Kd,hFcεR1α.MMH [8],977 nM
same,koff,hFcεR1α.MMH [8],0.0934 s⁻¹
same,kon,hFcεR1α.MMH [8],95600 M⁻¹ s⁻¹
same,t½,hFcεR1α.MMH [8],7.2 s
same,600 nM mfFceR1a.MMH Bound (RU),mfFcεR1α.MMH [9],60 RU
same,Kd,mfFcεR1α.MMH [9],256 nM
same,koff,mfFcεR1α.MMH [9],0.0161 s⁻¹
same,kon,mfFcεR1α.MMH [9],62900 M⁻¹ s⁻¹
same,t½,mfFcεR1α.MMH [9],42 s
same,600 nM mfFceR1a.MMH Bound (RU),mfFcεR1α.MMH [10],37 RU
same,Kd,mfFcεR1α.MMH [10],520 nM
same,koff,mfFcεR1α.MMH [10],0.0445 s⁻¹
same,kon,mfFcεR1α.MMH [10],85600 M⁻¹ s⁻¹
same,t½,mfFcεR1α.MMH [10],15.6 s
same,Binding Ratio (MFI of Treated/MFI of Unstained),[11],295
same,Binding Ratio (MFI of Treated/MFI of Unstained),[12],284
